The chains are these.
B1: acetylated free N-terminal peptide of EI Shaker (Ac-AAVAGLYGLGKKRQHRKKQ) (peptide)
peptide: Ac-AAVAGLYGLGKKRQHRKKQ
notes: N terminus of the Shaker Kv channel without the initiator Met, with the E12K and D13K changes of EI Shaker; molecular weight 2,151 Da; also called additional N-terminal peptide; source: synthetic peptide (GenScript)
B2: GT Shaker Kv channel (N-terminally mVenus tagged Shaker after TEV cleavage, with additional Gly and Thr on the N terminus) (natural protein, Drosophila melanogaster)
chain: GTMAAVAGLYGLGEDRQHRKKQQQQQQHQKEQLEQKEEQKKIAERKLQLREQQLQRNSLDGYGSLPKLSSQDEEGGAGHGFGGGPQHFEPIPHDHDFCERVVINVSGLRFETQLRTLNQFPDTLLGDPARRLRYFDPLRNEYFFDRSRPSFDAILYYYQSGGRLRRPVNVPLDVFSEEIKFYELGDQAINKFREDEGFIKEEERPLPDNEKQRKVWLLFEYPESSQAARVVAIISVFVILLSIVIFCLETLPEFKHYKVFNTTTNGTKIEEDEVPDITDPFFLIETLCIIWFTFELTVRFLACPNKLNFCRDVMNVIDIIAIIPYFITLATVVAEEEDTLNLPKAPVSPQDKSSNQAMSLAILRVIRLVRVFRIFKLSRHSKGLQILGRTLKASMRELGLLIFFLFIGVVLFSSAVYFAEAGSENSFFKSIPDAFWWAVVTMTTVGYGDMTPVGVWGKIVGSLCAIAGVLTIALPVPVIVSNFNYFYHRETDQEEMQSQNFNHVTSCPYLPGTLGQHMKKSSLSESSSDMMDLDDGVESTPGLTETHPGRSAVAPFLGAQQQQQQPVASSLSMSIDKQLQHPLQQLTQTQLYQQQQQQQQQQQNGFKQQQQQTQQQLQQQQSHTINASAAAATSGSGSSGLTMRHNNALAVSIETDV
notes: two additional residues (Gly and Thr) left on the N terminus after removal of the mVenus tag with TEV protease, confirmed by mass spectrometry; Shaker Kv channel, Drosophila melanogaster, full-length gene; the N-terminal Met stands at position 3 of this construct; Purified by the N-terminal tag, so at least one N terminus is intact in each tetramer; other N termini may be truncated by …
B3: full-length wild-type (WT) Shaker Kv channel, C-terminally mVenus tagged, tag removed (natural protein, Drosophila melanogaster, UniProt P08510 1-655, looked up)
chain: MAAVAGLYGLGEDRQHRKKQQQQQQHQKEQLEQKEEQKKIAERKLQLREQQLQRNSLDGYGSLPKLSSQDEEGGAGHGFGGGPQHFEPIPHDHDFCERVVINVSGLRFETQLRTLNQFPDTLLGDPARRLRYFDPLRNEYFFDRSRPSFDAILYYYQSGGRLRRPVNVPLDVFSEEIKFYELGDQAINKFREDEGFIKEEERPLPDNEKQRKVWLLFEYPESSQAARVVAIISVFVILLSIVIFCLETLPEFKHYKVFNTTTNGTKIEEDEVPDITDPFFLIETLCIIWFTFELTVRFLACPNKLNFCRDVMNVIDIIAIIPYFITLATVVAEEEDTLNLPKAPVSPQDKSSNQAMSLAILRVIRLVRVFRIFKLSRHSKGLQILGRTLKASMRELGLLIFFLFIGVVLFSSAVYFAEAGSENSFFKSIPDAFWWAVVTMTTVGYGDMTPVGVWGKIVGSLCAIAGVLTIALPVPVIVSNFNYFYHRETDQEEMQSQNFNHVTSCPYLPGTLGQHMKKSSLSESSSDMMDLDDGVESTPGLTETHPGRSAVAPFLGAQQQQQQPVASSLSMSIDKQLQHPLQQLTQTQLYQQQQQQQQQQQNGFKQQQQQTQQQLQQQQSHTINASAAAATSGSGSSGLTMRHNNALAVSIETDV
notes: Shaker Kv channel, Drosophila melanogaster, full-length gene; Residues of the TEV site may remain at the C terminus (surmise); also called C-terminally tagged WT Shaker; C-terminal mVenus-tagged Shaker; not shown: mVenus, C-terminal, cleaved; polyhistidine, C-terminal, cleaved
B4: full-length E12K/D13K AcA-EI Shaker Kv channel (enhanced inactivation mutant, initiator Met removed, Ala2 acetylated) (natural protein, Drosophila melanogaster, UniProt P08510 2-655, looked up)
chain: AAVAGLYGLGKKRQHRKKQQQQQQHQKEQLEQKEEQKKIAERKLQLREQQLQRNSLDGYGSLPKLSSQDEEGGAGHGFGGGPQHFEPIPHDHDFCERVVINVSGLRFETQLRTLNQFPDTLLGDPARRLRYFDPLRNEYFFDRSRPSFDAILYYYQSGGRLRRPVNVPLDVFSEEIKFYELGDQAINKFREDEGFIKEEERPLPDNEKQRKVWLLFEYPESSQAARVVAIISVFVILLSIVIFCLETLPEFKHYKVFNTTTNGTKIEEDEVPDITDPFFLIETLCIIWFTFELTVRFLACPNKLNFCRDVMNVIDIIAIIPYFITLATVVAEEEDTLNLPKAPVSPQDKSSNQAMSLAILRVIRLVRVFRIFKLSRHSKGLQILGRTLKASMRELGLLIFFLFIGVVLFSSAVYFAEAGSENSFFKSIPDAFWWAVVTMTTVGYGDMTPVGVWGKIVGSLCAIAGVLTIALPVPVIVSNFNYFYHRETDQEEMQSQNFNHVTSCPYLPGTLGQHMKKSSLSESSSDMMDLDDGVESTPGLTETHPGRSAVAPFLGAQQQQQQPVASSLSMSIDKQLQHPLQQLTQTQLYQQQQQQQQQQQNGFKQQQQQTQQQLQQQQSHTINASAAAATSGSGSSGLTMRHNNALAVSIETDV
modifications: acetyl on the N-terminal Ala2 (initiator Met removed), by mass spectrometry
notes: Shaker Kv channel, Drosophila melanogaster; Residues of the TEV site may remain at the C terminus (surmise); not shown: mVenus, C-terminal, cleaved; polyhistidine, C-terminal, cleaved

Data set [1] addresses B4. The experiment in a line: cryo-EM structure; AcA-EI Shaker in MSP1E3D1 lipid nanodiscs, 4 mM KCl, 46 mM NaCl, incubated with 1 mM free acetylated N-terminal peptide for 30 min before grid preparation; C1. The settings on record: both partners purified.
Data set [2] deals with the molecule itself. The experiment in a line: cryo-EM structure; channel in MSP1E3D1 lipid nanodiscs (POPC:POPG:POPE 3:1:1), 20 mM Tris pH 7.5, 4 mM KCl, 46 mM NaCl; C4 refinement and focused classification in C1.

Ends that are not written are not given here.

For the molecule B1, the binding result in data set [1] is reported as “binds”.
With B2, the binding result in data set [2] was “binds”.
Still for that read-out and setting: as for B3, the entry is “binds”; as for B4, “binds”.

For the origin of these results see publication PMC12460158, “Structural basis of fast N-type inactivation in Kv channels” (Nature, 2025).
